Results published in the RNAGym collection of RNA variant scans (doi:10.7554/elife.90254).

B1: LINE1-full (parent)
chain: UACGUAGGUGGUUUUCCCCUGAUAGUGCUAAGGGGGCCUGGAAGUUUGGACUGGGCAGAGCUCAACACAGCGUGGCAAAGUGGCUGUGGCUAGACUGCCUCUCUGGAUUCCUCGUCACUCAGCAGGGCAUCUCUGAGAGAAAUGCC

Variants of: B1
Assay: self-cleavage, relative activity (ratio to wild type); higher = more cleavage; in vitro, sequencing; the parent is a self-cleaving ribozyme
In the case of UACGUAGGUGGUUUUCCCCUGAUAGUGCUAAGGGUGCCUGGAAGUUUGGACUGGGCAGAGCUCAACACAGCGUGGCAAAGAGGCUGUGGCUAGACUGCCUCUCUGGAUUCCUCGUCACUCAGCAGGGCAUCUCUGAGAGAAAUGCC [G35U U81A], the self-cleavage is reported as 1.82. UACGUAGGUGGUUUUCCCCUGAUAGUGCUAAGGGUGCCUGGAAGUUUGGACUGGGCAGAGCUCAACACAGCGUGGCAAAGUGGCUGUGGCCAGACUGCCUCUCUGGAUUCCUCGUCACUCAGCAGGGCAUCUCUGAGAGAAAUGCC [G35U U91C] showed a self-cleavage of 0.52. UACGUAGGUGGUUUUCCCCUGAUAGUGCUAAGGGUGCCUGGAAGUUUGGACUGGGCAGAGCUCAACACAGCGUGGCAAAGUGGCUGUGGCUAGACUGCCACUCUGGAUUCCUCGUCACUCAGCAGGGCAUCUCUGAGAGAAAUGCC [G35U U100A] showed a self-cleavage of 0.78. UACGUAGGUGGUUUUCCCCUGAUAGUGCUAAGGGUGCCUGGAAGUUUGGACUGGGCAGAGCUCAACACAGCGUGGCAAAGUGGCUGUGGCUAGACUGCCUCACUGGAUUCCUCGUCACUCAGCAGGGCAUCUCUGAGAGAAAUGCC [G35U U102A] gave a self-cleavage of 1.8. In the case of UACGUAGGUGGUUUUCCCCUGAUAGUGCUAAGGGUGCCUGGAAGUUUGGACUGGGCAGAGCUCAACACAGCGUGGCAAAGUGGCUGUGGCUAGACUGCCUCCCUGGAUUCCUCGUCACUCAGCAGGGCAUCUCUGAGAGAAAUGCC [G35U U102C], the self-cleavage is reported as 1.73. Variant UACGUAGGUGGUUUUCCCCUGAUAGUGCUAAGGGUGCCUGGAAGUUUGGACUGGGCAGAGCUCAACACAGCGUGGCAAAGUGGCUGUGGCUAGACUGCCUCUCCGGAUUCCUCGUCACUCAGCAGGGCAUCUCUGAGAGAAAUGCC [G35U U104C] has a self-cleavage of 0.8. For UACGUAGGUGGUUUUCCCCUGAUAGUGCUAAGGGUGCCUGGAAGUUUGGACUGGGCAGAGCUCAACACAGCGUGGCAAAGUGGCUGUGGCUAGACUGCCUCUCUGGAUUCCCCGUCACUCAGCAGGGCAUCUCUGAGAGAAAUGCC [G35U U112C], the self-cleavage was 0.75. Variant UACGUAGGUGGUUUUCCCCUGAUAGUGCUAAGGGUGCCUGGAAGUUUGGACUGGGCAGAGCUCAACACAGCGUGGCAAAGUGGCUGUGGCUAGACUGCCUCUCUGGAUUCCUCGUCACUCAGCAGGGCACCUCUGAGAGAAAUGCC [G35U U130C] has a self-cleavage of 1.74. Work on UACGUAGGUGGUUUUCCCCUGAUAGUGCUAAGGGGACCUGGGAGUUUGGACUGGGCAGAGCUCAACACAGCGUGGCAAAGUGGCUGUGGCUAGACUGCCUCUCUGGAUUCCUCGUCACUCAGCAGGGCAUCUCUGAGAGAAAUGCC [G36A A42G] yielded a self-cleavage of 1.07. In the case of UACGUAGGUGGUUUUCCCCUGAUAGUGCUAAGGGGACCUGGAGGUUUGGACUGGGCAGAGCUCAACACAGCGUGGCAAAGUGGCUGUGGCUAGACUGCCUCUCUGGAUUCCUCGUCACUCAGCAGGGCAUCUCUGAGAGAAAUGCC [G36A A43G], the self-cleavage is reported as 1.07. With UACGUAGGUGGUUUUCCCCUGAUAGUGCUAAGGGGACCUGGAAGUUUGGACUGGGCAGAGCUCAACACGGCGUGGCAAAGUGGCUGUGGCUAGACUGCCUCUCUGGAUUCCUCGUCACUCAGCAGGGCAUCUCUGAGAGAAAUGCC [G36A A69G] the self-cleavage was 0.34. For UACGUAGGUGGUUUUCCCCUGAUAGUGCUAAGGGGACCUGGAAGUUUGGACUGGGCAGAGCUCAACACAGCGUGGCGAAGUGGCUGUGGCUAGACUGCCUCUCUGGAUUCCUCGUCACUCAGCAGGGCAUCUCUGAGAGAAAUGCC [G36A A77G], the self-cleavage was 1.35. Variant UACGUAGGUGGUUUUCCCCUGAUAGUGCUAAGGGGACCUGGAAGUUUGGACUGGGCAGAGCUCAACACAGCGUGGCAAGGUGGCUGUGGCUAGACUGCCUCUCUGGAUUCCUCGUCACUCAGCAGGGCAUCUCUGAGAGAAAUGCC [G36A A79G] has a self-cleavage of 0.96. Variant UACGUAGGUGGUUUUCCCCUGAUAGUGCUAAGGGGACCUGGAAGUUUGGACUGGGCAGAGCUCAACACAGCGUGGCAAAGUGGCUGUGGCUAGACUGCCUCUCUGGAUUCCUCGUCGCUCAGCAGGGCAUCUCUGAGAGAAAUGCC [G36A A117G] has a self-cleavage of 1.34. In the case of UACGUAGGUGGUUUUCCCCUGAUAGUGCUAAGGGGACCUGGAAGUUUGGACUGGGCAGAGCUCAACACAGCGUGGCAAAGUGGCUGUGGCUAGACUGCCUCUCUGGAUUCCUCGUCACUCAGCCGGGCAUCUCUGAGAGAAAUGCC [G36A A124C], the self-cleavage is reported as 2.16. UACGUAGGUGGUUUUCCCCUGAUAGUGCUAAGGGGACCUGGAAGUUUGGACUGGGCAGAGCUCAACACAGCGUGGCAAAGUGGCUGUGGCUAGACUGCCUCUCUGGAUUCCUCGUCACUCAGCUGGGCAUCUCUGAGAGAAAUGCC [G36A A124U] gave a self-cleavage of 0.31. UACGUAGGUGGUUUUCCCCUGAUAGUGCUAAGGGGACCUGGAAGUUUGGACUGGGCAGAGCUCAACACAGCGUGGCAAAGUGGCUGUGGCUAGACUGCCUCUCUGGAUUCCUCGUCACUCAGCAGGGCAUCUCUGAGAGAGAUGCC [G36A A141G] gave a self-cleavage of 1.38. UACGUAGGUGGUUUUCCCCUGAUAGUGCUAAGGGGACAUGGAAGUUUGGACUGGGCAGAGCUCAACACAGCGUGGCAAAGUGGCUGUGGCUAGACUGCCUCUCUGGAUUCCUCGUCACUCAGCAGGGCAUCUCUGAGAGAAAUGCC [G36A C38A] gave a self-cleavage of 1.18. In the case of UACGUAGGUGGUUUUCCCCUGAUAGUGCUAAGGGGACCUGGAAGUUUGGACUGGGCAGAGCUCAACACAGCGUGGCAAAGUGGUUGUGGCUAGACUGCCUCUCUGGAUUCCUCGUCACUCAGCAGGGCAUCUCUGAGAGAAAUGCC [G36A C84U], the self-cleavage is reported as 0.15. UACGUAGGUGGUUUUCCCCUGAUAGUGCUAAGGGGACCUGGAAGUUUGGACUGGGCAGAGCUCAACACAGCGUGGCAAAGUGGCUGUGGCUAGAGUGCCUCUCUGGAUUCCUCGUCACUCAGCAGGGCAUCUCUGAGAGAAAUGCC [G36A C95G] gave a self-cleavage of 0.02.
